From patent US11059864B2, “Chimeric antigen receptor (CAR) modulation” (TRUSTEES OF BOSTON UNIVERSITY, priority 2019, dated 2021)

Experiments:
[1] = test system: Her2-expressing NALM cells; assay: Cell killing by Her2-specific NS3 CAR CD8+ T cells; type: cell-based, human
Procedure: FIG. 3A-3B is a series of graphs. FIG. 3A is a bar graph showing the killing efficiency of CD8+ T cells following expression of the NS3 CAR constructs or traditional CAR, in the presence or absence of GZV.
To further evaluate the downstream effector function of NS3 CAR T cells, their cell killing abilities were tested. Her2-specific NS3 CAR CD8+ T cells were mixed with Her2-expressing NALM cells at a 1:1 ratio and the extent of cell killing determined.
By varying the dose of NS3 inhibitor, the level of CD8+ T cell-mediated killing could be modulated.

[2] = test system: NFAT; assay: NS3 OFF CAR: NFAT-GFP levels in Jurkat T cells (components on separate vectors); type: cell-based; conditions: Jurkat T cells expressing two-component OFF-switch; presence of grazoprevir
Procedure: (§1) FIG. 8A-8D is a series of schematics and graphs showing testing of variations of the NS3 OFF CAR in Jurkat T cells. […] Combinations of components were tested as indicated. Each was introduced on a separate vector.
NS3 CAR OFF switches, comprising first and second components, were constructed as described herein. The first component comprises a peptide, which is specific for the NS3 of the second component, thus bringing the two components together.
(§2) Two different versions of the first component (c and d) and four different versions of the second component of the OFF-switch (i, ii, iii, and iv) were tested in Jurkat T cells. […] The OFF-switch CARs can also function when expressed in a single vector (see e.g., FIG. 9A-9C, FIG. 10A-10D).

[3] = test system: Jurkat T cells; assay: NS3 OFF CAR: CD69 levels in Jurkat cells (components on separate vectors); type: cell-based; conditions: Jurkat cells expressing OFF-switch components; presence of grazoprevir
Procedure: as §1, §2

[4] = target: NS3a-genotype 1b (Hepatitis C virus genotype 1b, UniProt P26662, S1165A); conditions: read-out: affinity of basal complex with NS3a-genotype 1b; cited from earlier work
[5] = target: T1, NS3a/danoprevir complex (Hepatitis C virus genotype 1a, UniProt P27958); conditions: cited from earlier work
T1 construct: comprise the N-terminal 180 amino acids of the NS3 protein

[6] = target: T2, asunaprevir-bound NS3a (Hepatitis C virus genotype 1a, UniProt P27958); conditions: cited from earlier work
T2 construct: comprise the N-terminal 180 amino acids of the NS3 protein

[7] = target: T3, apo NS3a (Hepatitis C virus genotype 1a, UniProt P27958); conditions: cited from earlier work
T3 construct: comprise the N-terminal 180 amino acids of the NS3 protein

[8] = target: grazoprevir/NS3a complex; conditions: cited from earlier work
[9] = test system: Her2+ target NALM cells; assay: CD69 expression in CD4+ and CD8+ primary T cells expressing NS3 CARs mixed with target cells; type: cell-based; conditions: human CD4+ and CD8+ primary T cells; presence or absence of grazoprevir and/or Her2+ target NALM cells
Description: (§3) FIG. 2A-2B is a series of bar graphs. FIG. 2A is a series of bar graphs showing CD69 expression in CD4+ and CD8+ T cells following expression of the NS3 CAR constructs or traditional CAR, in the presence or absence of GZV (Grazoprevir) and/or target cell. FIG. 2B is a series of bar graphs showing CD4+ and CD8+ T cell IL-2 and IFN-gamma cytokine release following expression the NS3 CAR constructs or traditional CAR, in the presence or absence of GZV and/or target cell.
(§4) These CARs were introduced into human CD4+ and CD8+ primary T cells and tested for functionality by mixing with Her2+ target NALM cells. As a readout for NS3 CAR control over T cell activity, levels of CD69 (an early T cell activation marker) and cytokine release (indicative of downstream effector function) were measured. It is expected that in the absence of grazoprevir (an NS3 inhibitor), the CAR is dismantled, rendering it non-functional. Once grazoprevir is added, the full CAR is assembled, thus allowing the T cell to activate when Her2-expressing target cells are present (see e.g., FIG. 1B).

[10] = test system: Her2+ target NALM cells; assay: IL-2 and IFN-gamma cytokine release by CD4+ and CD8+ primary T cells expressing NS3 CARs; type: cell-based; conditions: human CD4+ and CD8+ primary T cells; presence or absence of grazoprevir and/or Her2+ target NALM cells
Description: as §3, §4

Chain of grazoprevir/NS3a complex (P27958 1027-1208, one chain of several): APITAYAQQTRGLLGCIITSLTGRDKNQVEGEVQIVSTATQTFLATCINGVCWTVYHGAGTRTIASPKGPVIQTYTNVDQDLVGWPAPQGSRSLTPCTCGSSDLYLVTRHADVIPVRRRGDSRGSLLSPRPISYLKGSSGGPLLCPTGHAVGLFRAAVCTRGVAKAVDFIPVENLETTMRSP
T2 sequence (P27958 1027-1208): as the sequence (P27958 1027-1208, one chain of several) above
T1 sequence (P27958 1027-1208, one chain of several): as above
T3 sequence (P27958 1027-1208): as the sequence (P27958 1027-1208, one chain of several) above
Chain of NS3a-genotype 1b (P26662 1029-1207 D1056E/L1062V/P1112Q/M1120L/V1140I/I1158V/S1165A/V1176A/I1196V): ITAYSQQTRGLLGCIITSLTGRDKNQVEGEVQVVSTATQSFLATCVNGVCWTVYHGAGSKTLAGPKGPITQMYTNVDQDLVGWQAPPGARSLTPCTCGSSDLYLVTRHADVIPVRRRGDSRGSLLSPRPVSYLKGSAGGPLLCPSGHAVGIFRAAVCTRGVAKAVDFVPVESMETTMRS

## C=C[C@@H]1C[C@]1(NC(=O)[C@@H]1C[C@@H]2CN1C(=O)[C@H](C(C)(C)C)NC(=O)O[C@@H]1C[C@H]1CCCCCc1nc3ccc(OC)cc3nc1O2)C(=O)NS(=O)(=O)C1CC1 [grazoprevir]
[1]; CD8+ T cells expressing the V2 NS3 CAR, 1:1 ratio, NS3 inhibitor varied between 0 uM-5 uM
  cell killing ability versus level of NS3 inhibitor: can be used to regulate the level of killing efficiency
[1]; traditional CAR T cells or wild-type cells
  killing efficiency versus concentration of Grazoprevir: does not impact traditional CAR T cells or wild-type cells
[2]
  NFAT-GFP levels: diminished to baseline
[3]
  CD69 levels: diminished to baseline

## apo NS3a reader peptide GELDELVYLLDGPGYDPIHSD, SEQ ID NO: 204 [ANR]
[4]
  Kd: 10 nM

B1: GNCR1: grazoprevir/NS3 complex reader domain, SEQ ID NO: 105, 233 aa (protein)
chain: DIEKLCKKAEEEAKEAQEKADELRQRHPDSQAAEDAEDLANLAVAAVLTACLLAQEHPNADIAKLCIKAASEAAEAASKAAELAQRHPDSQAARDAIKLASQAARAVILAIMLAAENPNADIAKLCIKAASEAAEAASKAAELAQRHPDSQAARDAIKLASQAAEAVERAIWLAAENPNADIAKKCIKAASEAAEEASKAAEEAQRHPDSQKARDEIKEASQKAEEVKERCKS
[5]
  binding of NS3 in the presence of danoprevir (danoprevir-bound NS3a): little to no affinity
[6]
  binding of NS3 in the presence of asunaprevir (asunaprevir-bound NS3a): little to no affinity
[7]
  binding to apo NS3a: little to no affinity
[8]; read-out: affinity for the grazoprevir/NS3a complex
  Kd: 140 nM

B2: G5: reader domain, SEQ ID NO: 208 (named G3 in the sequence listing), 233 aa (protein)
chain: DIEKLCKKAEEEAKEAQEKADELRQRHPDSQAAEDAEDLANEAEAAVLAACSLAQEHPNADIAKLCIKAASEAAEAASKAAELAQRHPDSQAARDAIKLASQAARAVILAIMLAAENPNADIAKLCIKAASEAAEAASKAAELAQRHPDSQAARDAIKLASQAAEAVERAIWLAAENPNADIAKKCIKAASEAAEEASKAAEEAQRHPDSQKARDEIKEASQKAEEVKERCKS
[5]
  binding of NS3 in the presence of danoprevir (danoprevir-bound NS3a): no binding
[6]
  binding of NS3 in the presence of asunaprevir (asunaprevir-bound NS3a): some binding
[8]
  binding of NS3 in the presence of grazoprevir: moderate binding

B3: Traditional CAR: traditional third-generation Her2 CAR without NS3; SEQ ID NO: 4, 37 (protein)
chain: ALPVTALLLPLALLLHAARPKYLLPTAAAGLLLLAAQPAMAQVQLVQSGAEVKKPGESLKISCKGSGYSFTSYWIAWVRQMPGKGLEYMGLIYPGDSDTKYSPSFQGQVTISVDKSVSTAYLQWSSLKPSDSAVYFCARHDVGYCTDRTCAKWPEYFQHWGQGTLVTVSSGGGGSGGGGSGGGGSQSVLTQPPSVSAAPGQKVTISCSGSSSNIGNNYVSWYQQLPGTAPKLLIYDHTNRPAGVPDRFSGSKSGTSASLAISGFRSEDEADYYCASWDYTLSGWVFGGGTKLTVLGGKPIPNPLLGLDSTNGAATTTPAPRPPTPAPTIALQPLSLRPEACRPAAGGAVHTRGLDFACDFWVLVVVGGVLACYSLLVTVAFIIFWVRSKRSRLLHSDYMNMTPRRPGPTRKHYQPYAPPRDFAAYRSKRGRKKLLYIFKQPFMRPVQTTQEEDGCSCRFPEEEEGGCELRVKFSRSADAPAYKQGQNQLYNELNLGRREEYDVLDKRRGRDPEMGGKPRRKNPQEGLYNELQKDKMAEAYSEIGMKGERRRGKGHDGLYQGLSTATKDTYDALHMQALPPR
[9]
  CD69 expression: no response to the NS3 inhibitor
[10]
  IL-2 and IFN-gamma cytokine release: no response to the NS3 inhibitor

B4: DNCR2: danoprevir/NS3 complex reader domain, SEQ ID NO: 101, 229 aa (protein)
chain: SSDEEEARELIERAKEAAERAQEAAERTGDPRVRELARELKRLAQEAAEEVKRDPSSSDVNEALKLIVEAIEAAVDALEAAERTGDPEVRELARELVRLAVEAAEEVQRNPSSSDVNEALHSIVYAIEAAIFALEAAERTGDPEVRELARELVRLAVEAAEEVQRNPSSRNVEHALMRIVLAIYLAEENLREAEESGDPEKREKARERVREAVERAEEVQRDPSGWLNH
[5]
  selectivity over NS3a bound to the drugs grazoprevir or asunaprevir: > 20,000 fold
[5]; read-out: affinity for the NS3a/danoprevir complex
  Kd: 0.036 nM
[7]
  binding to apo NS3a: no detectable binding

B5: DNCR1: danoprevir/NS3 complex reader domain, SEQ ID NO: 207, 229 aa (protein)
chain: SSDEEEARELIERAKEAAERAQEAAERTGDPRVRELARELKRLAQEAAEEVKRDPSSSDVNEALKLIVEAIEAAVDALEAAERTGDPEVRELARELVRLAVEAAEEVQRNPSSSDVNEALLSIVIAIEAAVHALEAAERTGDPEVRELARELVRLAVEAAEEVQRNPSSREVEHALMKIVLAIYEAEESLREAEESGDPEKREKARERVREAVERAEEVQRDPSGWLNH
[5]
  binding of NS3 in the presence of danoprevir (danoprevir-bound NS3a): high binding
[6]
  binding of NS3 in the presence of asunaprevir (asunaprevir-bound NS3a): minimal binding
[8]
  binding of NS3 in the presence of grazoprevir: minimal binding

B6: D5: reader domain, SEQ ID NO: 206, 229 aa (protein)
chain: SSDEEEARELIERAKEAAERAQEAAERTGDPRVRELARELKRLAQEAAEEVKRDPSSSDVNEALKLIVEAIEAAVDALEAAERTGDPEVRELARELVRLAVEAAEEVQRNPSSSDVNEALLTIVIAIEAAVNALEAAERTGDPEVRELARELVRLAVEAAEEVQRNPSSREVNIALWKIVLAIQEAVESLREAEESGDPEKREKARERVREAVERAEEVQRDPSGWLNH
[5]
  binding of NS3 in the presence of danoprevir (danoprevir-bound NS3a): moderate binding
[6]
  binding of NS3 in the presence of asunaprevir (asunaprevir-bound NS3a): some binding
[8]
  binding of NS3 in the presence of grazoprevir: moderate binding
